Test results from US6998239.

Target: T1, human CCX CKR with N-terminal Flag epitope, stably expressed on HEK293 cells, Q9NPB9
T1 chain: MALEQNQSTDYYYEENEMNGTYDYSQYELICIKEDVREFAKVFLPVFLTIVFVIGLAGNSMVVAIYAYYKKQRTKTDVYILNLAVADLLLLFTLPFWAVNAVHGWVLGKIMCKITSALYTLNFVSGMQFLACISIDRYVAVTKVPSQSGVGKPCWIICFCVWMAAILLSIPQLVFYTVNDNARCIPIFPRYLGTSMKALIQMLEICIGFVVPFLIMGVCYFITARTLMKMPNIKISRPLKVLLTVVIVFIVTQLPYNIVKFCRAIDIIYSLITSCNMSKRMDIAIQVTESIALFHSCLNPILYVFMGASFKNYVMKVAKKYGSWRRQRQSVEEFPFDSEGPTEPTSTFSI
Experiment: 125I-ELC competition binding
Conditions: ligand; chains chain; remark: other sources report otherwise

B1: BLC (B-lymphocyte chemoattractant), O43927 23-109 (protein)
chain: VLEVYYTSLRCRCVQESSVFIPRRFIDRIQILPRGNGCPRKEIIVWKKNKSIVCVDPQAEWIQRMMEVLRKRSSSTLPVPVFKRKIP
IC50: 140 nM
